Measurements as given in paper PMC9351520.

What was measured:
[1] = target: fluorescently Ct-labeled six-residue peptide bearing Nt-Glu; assay: fluorescence polarisation
[2] = target: fluorescently Ct-labeled six-residue peptide bearing Nt-Asp; assay: fluorescence polarisation

Kd [1]: > 100 µM
Kd [2]: > 100 µM
Substance: klAte1, the Ate1 arginyl-tRNA-protein transferase (R-transferase) of Kluyveromyces lactis (enzyme)
